The assay addresses Fc-tagged SARS-CoV-2 RBD (residues 319-535, C-terminal human IgG4 Fc region) (SARS-CoV-2 | human) (UniProt P0DTC2). The assay can be described thus: SEC; Superose 6 Increase 10/300 GL gel filtration of each purified protein alone. For orientation: In gel filtration, larger molecules generally elute earlier.

In turn, “Fc-tagged SARS-CoV-2 RBD (residues 319-535, C-terminal human IgG4 Fc region) (from UniProt P0DTC2 319-535) (Fc fusion)” yielded a stoichiometry N of 2.

The term stoichiometry N denotes a count of units in the complex or per binding partner.

For the origin of these results see paper PMC8448314.
